Reference: article PMC11376147 (Chemical Science, 2024)

Biological target: SARS-CoV-2 Spike glycoprotein (SARS-CoV-2) (UniProt P0DTC2)
Assay: SPR

| Substance | SPR response without ligand (the pair that is blocked) |
| --- | --- |
| DC-SIGN entire extracellular domain (ECD) (from UniProt Q9NNX6 59-404) (receptor) | 2500 RU |
| L-SIGN entire extracellular domain (ECD) (from UniProt Q9H2X3 71-399) (receptor) | 2000 RU |
